Residue numbers refer to the chain shown, from its start.
B1: CD33/CD3 tandem diabody 24 (bispecific antibody)
chain: DIQMTQSPSSLSASVGDRVTITCRSSTGAVTTSNYANWVQQKPGKAPKALIGGTNKRAPGVPSRFSGSLIGDKATLTISSLQPEDFATYYCALWYSNLWVFGQGTKVEIKGGSGGSQVQLVQSGAEVKKPGSSVKVSCKASGGTFDSYAISWVRQAPGQGLEWMGGIIPIFGSAHYSQKFQGRVTITADESTSTAYMELSSLRSEDTAVYYCAREYYYDSSEWAFDIWGQGTLVTVSSGGSGQSVLTQPPSASGTPGQRVTISCSGSSSNIGDNVVNWYQQLPGTAPKLLIYSTNKRPSGVPDRFSGSKSGSSASLAISGLQSEDEADYYCAAWDDSLSAYVFGGGTKLTVLGGSGGSEVQLVESGGGLVQPGGSLRLSCAASGFTFSTYAMNWVRQAPGKGLEWVGRIRSKYNNYATYYADSVKDRFTISRDDSKNSLYLQMNSLKTEDTAVYYCARHGNFGNSYVSYFAYWGQGTLVTVSSAAAGSHHHHHH
notes: Non-covalent homodimer; domain order 1; also called TandAb 24
B2: CD33/CD3 tandem diabody 05 (bispecific antibody)
chain: DIQMTQSPSSLSASVGDRVTITCRSSTGAVTTSNYANWVQQKPGKAPKGLIGGTNKRAPGVPARFSGSGSGTDFTLTISSLQPEDFATYYCALWYSNLWVFGQGTKVEIKGGSGGSQVQLVQSGAEVKKPGASVKVSCKASGYTFTSYDINWVRQAPGQGLEWMGWMNPNSGNTGFAQKFQGRVTMTRDTSTSTVYMELSSLRSEDTAVYYCARDRANTDYSFGMDVWGQGTLVTVSSGGSGGQSVLTQPPSASGTPGQRVTISCSGSRSNIGSNTVNWYQQLPGTAPKLLIYGNNQRPSGVPDRFSGSKSGTSASLAISGLQSEDEADYYCATWDDSLIGWVFGGGTKLTVLGGSGGSEVQLVESGGGLVQPGGSLRLSCAASGFTFSTYAMNWVRQAPGKGLEWVGRIRSKYNNYATYYADSVKDRFTISRDDSKNSLYLQMNSLKTEDTAVYYCARHGNFGNSYVSWFAYWGQGTLVTVSSAAAGSHHHHHH
notes: Non-covalent homodimer; domain order 1; also called TandAb 05; tandem diabody 5
B3: CD33/CD3 tandem diabody 06 (bispecific antibody)
chain: B2 chain with F223L
notes: Non-covalent homodimer; domain order 1; also called TandAb 06; tandem diabody 6
B4: CD33/CD3 tandem diabody 23 (bispecific antibody)
chain: DIQMTQSPSSLSASVGDRVTITCRSSTGAVTTSNYANWVQQKPGKAPKGLIGGTNKRAPGVPSRFSGSLIGTDFTLTISSLQPEDFATYYCALWYSNLWVFGQGTKVEIKGGSGGSQVQLVQSGAEVKKPGSSVKVSCKASGGTFSSYGISWVRQAPGQGLEWMGGIIPIFGSAHYAQKFQGRVTITADESTSTAYMELSSLRSEDTAVYYCAREYYYDSSEWAFDIWGQGTLVTVSSGGSGQSVLTQPPSASGTPGQRVTISCSGSSSNIGSNTVKWYQQLPGTAPKLLIYSNNQRSSGVPDRFSGSKSGSSASLAISGLQSEDEADYYCAAWDDSLNGYVFGGGTKLTVLGGSGGSEVQLVESGGGLVQPGGSLRLSCAASGFTFSTYAMNWVRQAPGKGLEWVGRIRSKYNNYATYYADSVKDRFTISRDDSKNSLYLQMNSLKTEDTAVYYCARHGNFGNSYVSWFAYWGQGTLVTVSS
notes: Non-covalent homodimer; domain order 1; also called TandAb 23

molecular target: T1, human CD33 on cells (human, UniProt P20138 18-364); test: flow cytometry, titration on HL-60 cells
T1 construct: whole, on cells; also called huCD33
T1 sequence (P20138 18-364): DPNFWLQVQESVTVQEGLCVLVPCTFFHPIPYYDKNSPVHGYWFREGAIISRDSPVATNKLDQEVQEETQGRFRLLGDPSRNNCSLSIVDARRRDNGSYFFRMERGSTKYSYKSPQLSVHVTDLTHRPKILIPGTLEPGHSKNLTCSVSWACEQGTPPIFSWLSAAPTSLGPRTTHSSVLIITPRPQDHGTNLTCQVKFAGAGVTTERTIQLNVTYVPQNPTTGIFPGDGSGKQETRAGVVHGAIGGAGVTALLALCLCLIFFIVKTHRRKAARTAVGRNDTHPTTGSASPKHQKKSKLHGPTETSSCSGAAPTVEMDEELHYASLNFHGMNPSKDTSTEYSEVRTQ

| Kd [nM] | Binder |
| --- | --- |
| 5.6 | B1 |
| 1 | B2 |
| 0.4 | B3 |
| 0.4 | B4 |

molecular target: T1, human CD33 on cells; test: flow cytometry, HL-60 cells

| Kd [nM] | Binder |
| --- | --- |
| 5.6 | B1 |
| 1 | B2 |
| 0.4 | B3 |
| 0.4 | B4 |

molecular target: T2, human CD3 on T cells (human, UniProt P07766 23-207); test: flow cytometry, human T-cells (as headed in Table 10)
T2 construct: whole, on cells; also called hu CD3; CD3 on Jurkat cells
T2 sequence (P07766 23-207): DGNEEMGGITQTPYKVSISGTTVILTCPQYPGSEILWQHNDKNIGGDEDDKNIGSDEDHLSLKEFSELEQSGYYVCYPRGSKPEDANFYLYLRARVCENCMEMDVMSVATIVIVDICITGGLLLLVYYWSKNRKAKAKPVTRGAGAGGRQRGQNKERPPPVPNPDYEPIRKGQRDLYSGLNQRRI

| Kd [nM] | Binder |
| --- | --- |
| 2.3 | B1 |
| 69.5 | B2 |
| 86.3 | B3 |
| 97.2 | B4 |

molecular target: cynomolgus CD33 on CHO cells (cynomolgus monkey); test: flow cytometry; KD on CHO-cynomolgus CD33 cells divided by KD on CHO-human CD33 cells

| KD ratio cynoCD33/ huCD33 | Binder |
| --- | --- |
| 1.8 | B1 |
| 0.8 | B2 |
| 0.8 | B3 |
| 1.9 | B4 |

molecular target: T1, human CD33 on cells; test: flow cytometry, titration on KG-1 cells

| Kd [nM] | Binder |
| --- | --- |
| 12.4 | B1 |
| 1.2 | B2 |
| 0.5 | B3 |
| 1 | B4 |

molecular target: T2, human CD3 on T cells; test: cell-based or functional assay

| CD69 Induction EC50 (pM) | T cell Proliferation in PBMC EC50 (pM) | CD25 Induction EC50 (pM) | Binder |
| --- | --- | --- | --- |
| 57 | 264 |  | B1 |
| 74 | 74 | 116 | B2 |
| 21 | 48 | 39 | B3 |
| 17 | 37 | 41 | B4 |

molecular target: T2, human CD3 on T cells; test: flow cytometry, titration on human CD3+ T cells (Jurkat per paragraph 124/paragraph 125)

| Kd [nM] | Binder |
| --- | --- |
| 2.3 | B1 |
| 69.5 | B2 |
| 86.3 | B3 |
| 97.2 | B4 |

molecular target: T1, human CD33 on cells; test: cell-based or functional assay

| Binder | EC50 on HL-60 [pM] (cytotoxicity) |
| --- | --- |
| B1 | 9.6 |
| B2 | 2.7 |
| B3 | 1.6 |
| B4 | 2.8 |

molecular target: T1, human CD33 on cells; test: flow cytometry, titration on U-937 cells

| Kd [nM] | Binder |
| --- | --- |
| 39.5 | B1 |
| 6.2 | B2 |
| 1.6 | B3 |
| 5.1 | B4 |

From EP4813396A2 (Amphivena Therapeutics, Inc., dated 2026)
